According to patent US20220324909A1 (COHBAR, published 2022):
Non-standard residues stand in square brackets, D forms with d. Primed or numbered codes have the meaning given here. No end group written: not given here. PEG12(3) = not defined here

T1: Apelin Receptor (APJ) stably overexpressed in CHO-K1 AGTRL1 Gi cells (human, UniProt P35414 1-380)
T1 sequence (looked up): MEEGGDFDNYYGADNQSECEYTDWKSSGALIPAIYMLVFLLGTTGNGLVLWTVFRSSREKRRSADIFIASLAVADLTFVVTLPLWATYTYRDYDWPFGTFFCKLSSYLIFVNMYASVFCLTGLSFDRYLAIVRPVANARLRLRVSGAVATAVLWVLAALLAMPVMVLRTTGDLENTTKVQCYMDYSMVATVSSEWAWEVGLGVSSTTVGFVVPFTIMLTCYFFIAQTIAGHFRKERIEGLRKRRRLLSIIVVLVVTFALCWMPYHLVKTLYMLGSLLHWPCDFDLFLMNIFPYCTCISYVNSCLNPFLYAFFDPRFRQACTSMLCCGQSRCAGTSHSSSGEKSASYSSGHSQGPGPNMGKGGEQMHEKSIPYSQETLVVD


What was measured:
[1] = molecular target: ProLink tagged human APJ (Apelin Receptor) in CHO-K1 AGTRL1 β-Arrestin cells (human, UniProt P35414 1-380); test: cell-based or functional assay
[2] = molecular target: T1, Apelin Receptor (APJ) stably …; test: cell-based or functional assay

Row | β-Arrestin recruitment, Percent of Apelin-13 Control Activity (10 µM peptide) [1] | cAMP levels, Percent of Pyr-Apelin-13 Control Activity (10 µM peptide, 10 µM forskolin) [2] | Binder
1 | 1 % of Apelin-13 control | 27 % of Pyr-Apelin-13 control | RRMVFQCLCG[dA] (cysteine pairing not given here) [SEQ ID NO 19]
2 | 17 % of Apelin-13 control | 64 % of Pyr-Apelin-13 control | RRMMGMVFQCLCG[dA] (cysteine pairing not given here) [SEQ ID NO 8]
3 | 5 % of Apelin-13 control | 1 % of Pyr-Apelin-13 control | Ac-RRMMGMVFQSLCG[dA] [SEQ ID NO 61]
4 | 0 % of Apelin-13 control | 4 % of Pyr-Apelin-13 control | RRMEVYQCLEG[dA] [SEQ ID NO 32]
5 | 9 % of Apelin-13 control | 21 % of Pyr-Apelin-13 control | Ac-RRMMGMVFQSLCG[dA]-NH2 [SEQ ID NO 63]
6 | 1 % of Apelin-13 control | 37 % of Pyr-Apelin-13 control | KRRMMGMVFQCLCGA ((PEG12) on the N-terminal K (position 1); (dA) D-alanine at position 15) [SEQ ID NO 20]
7 | 0 % of Apelin-13 control | 5 % of Pyr-Apelin-13 control | MMGMV [SEQ ID NO 44]
8 | 9 % of Apelin-13 control | 27 % of Pyr-Apelin-13 control | RRLLGLVFQSLCG[dA] [SEQ ID NO 33]
9 | 8 % of Apelin-13 control | 61 % of Pyr-Apelin-13 control | RXMMGMVFQSLCGA ((AIB) aminoisobutyric acid at position 2; (dA) D-alanine at position 14) [SEQ ID NO 34]
10 | 0 % of Apelin-13 control | 24 % of Pyr-Apelin-13 control | RMMGMVFQ [SEQ ID NO 51]
11 | 0 % of Apelin-13 control | -4 % of Pyr-Apelin-13 control | RRMVFQCLEG[dA] [SEQ ID NO 23]
12 | -1 % of Apelin-13 control | 3 % of Pyr-Apelin-13 control | RREMVYQCLCG[dA] (cysteine pairing not given here) [SEQ ID NO 25]
13 | -1 % of Apelin-13 control | 16 % of Pyr-Apelin-13 control | RRMVYQCLEG[dA] [SEQ ID NO 24]
14 | 0 % of Apelin-13 control | -2 % of Pyr-Apelin-13 control | RRMMGMV [SEQ ID NO 56]
15 | 0 % of Apelin-13 control | 19 % of Pyr-Apelin-13 control | RRLLGLVEQSLCG[dA] [SEQ ID NO 40]
16 | 1 % of Apelin-13 control | 6 % of Pyr-Apelin-13 control | RMMGMVFQSL [SEQ ID NO 53]
17 | 0 % of Apelin-13 control | 21 % of Pyr-Apelin-13 control | RRMMGMVYQCLEG[dA] [SEQ ID NO 29]
18 | 0 % of Apelin-13 control | 8 % of Pyr-Apelin-13 control | RMMGMVF [SEQ ID NO 50]
19 | 0 % of Apelin-13 control | 15 % of Pyr-Apelin-13 control | RMMGMVFQS [SEQ ID NO 52]
20 | 0 % of Apelin-13 control | 16 % of Pyr-Apelin-13 control | RRMMGMVFQSL [SEQ ID NO 60]
21 | 0 % of Apelin-13 control | 5 % of Pyr-Apelin-13 control | RRMMGMVFQ [SEQ ID NO 58]

Row | β-Arrestin recruitment, Percent of Apelin-13 Control Activity (10 µM peptide) [1] | cAMP levels, Percent of Pyr-Apelin-13 Control Activity (10 µM peptide, 10 µM forskolin) [2] | Binder
22 | 1 % of Apelin-13 control | 34 % of Pyr-Apelin-13 control | RRMMGMVFQCLCG[dA]K(PEG12(3)) (cysteine pairing not given here) [SEQ ID NO 21]
23 | -1 % of Apelin-13 control | 31 % of Pyr-Apelin-13 control | RRMMGMVAQCLEG[dA] [SEQ ID NO 30]
24 | 0 % of Apelin-13 control | -13 % of Pyr-Apelin-13 control | RRMMGMVFQSLEG[dA] [SEQ ID NO 39]
25 | 0 % of Apelin-13 control | 12 % of Pyr-Apelin-13 control | RRMMGMVEQSLCG[dA] [SEQ ID NO 38]
26 | 17 % of Apelin-13 control | 8 % of Pyr-Apelin-13 control | RXLLGLVFQSLCGA ((AIB) aminoisobutyric acid at position 2; (dA) D-alanine at position 14) [SEQ ID NO 35]
27 | -1 % of Apelin-13 control | 9 % of Pyr-Apelin-13 control | RRMAYQCLEG[dA] [SEQ ID NO 27]
28 | 0 % of Apelin-13 control | -1 % of Pyr-Apelin-13 control | RRMMGMVF [SEQ ID NO 57]
29 | 2 % of Apelin-13 control | 27 % of Pyr-Apelin-13 control | RRMMGMVFQSLCG[dA]-NH2 [SEQ ID NO 62]
30 | 0 % of Apelin-13 control | 2 % of Pyr-Apelin-13 control | RRMEVYQCLCG[dA] (cysteine pairing not given here) [SEQ ID NO 31]
31 | 0 % of Apelin-13 control | 62 % of Pyr-Apelin-13 control | RRMVYQCLCG[dA] (cysteine pairing not given here) [SEQ ID NO 22]
32 | 10 % of Apelin-13 control | 26 % of Pyr-Apelin-13 control | RRMMGMVFQSLSG[dA] [SEQ ID NO 17]
33 | 0 % of Apelin-13 control | -2 % of Pyr-Apelin-13 control | RRMMGMVFQS [SEQ ID NO 59]
34 | 1 % of Apelin-13 control | -7 % of Pyr-Apelin-13 control | RRMMGM [SEQ ID NO 55]
35 | 0 % of Apelin-13 control |  | RRMMGMVFQCLSG[dA] [SEQ ID NO 16]
36 | 0 % of Apelin-13 control | 29 % of Pyr-Apelin-13 control | RREMVYQCLEG[dA] [SEQ ID NO 26]
37 | 1 % of Apelin-13 control | 30 % of Pyr-Apelin-13 control | RRXXGXVFQCLCGA ((Nle) norleucine at positions 3, 4 and 6; (dA) D-alanine at position 14) [SEQ ID NO 18]
38 | -1 % of Apelin-13 control | 3 % of Pyr-Apelin-13 control | RRMGYQCLEG[dA] [SEQ ID NO 28]
39 | 1 % of Apelin-13 control | 20 % of Pyr-Apelin-13 control | RMMGMVFQSLCG[dA] [SEQ ID NO 54]
40 | 0 % of Apelin-13 control | 10 % of Pyr-Apelin-13 control | MMGMVF [SEQ ID NO 45]
41 | 0 % of Apelin-13 control | 15 % of Pyr-Apelin-13 control | RRLLGLVFQSLEG[dA] [SEQ ID NO 41]
